Experimental data as given in the domain aggregation screens of Martell et al. (2025).

Test: soluble fraction after stress (log2 fold change); higher = more stays soluble; pooled small domains, quantitative proteomics
Conditions: stress: 50 degC
Method in brief: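 Each library was heated to 50°C as a stress step. The libraries, made up of small protein domains, were pooled and analysed at high throughput by quantitative proteomics. The reported value is the base-two logarithm of the fold change in each protein's soluble amount after stress, taken as a measure of aggregation propensity. The higher the value, the more protein stays in solution.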
In the case of “HMFENPRALLEMMISLGNEQGLINMARDIVSAGEFRRLELAAGGDRRKLARMLIDHLVEVAPRLP”, the “soluble fraction (log2)” value is reported as -0.394. With “HMKNSKIVIQKRHNHILELLKQNRTMDVTVLAERLGVTGATIRRDLKKLEQEGTIVRSFGKVSFVG” the “soluble fraction (log2)” value was -0.867. In the case of “HMATQMSSARRGIATDEMKQVAKDEDVTLDWLLPKIAIGSIIIPSNNVRPQKIHNVGIGKGMKTKVN”, the “soluble fraction (log2)” value is reported as 0.116. In the case of “HMEPTAEQLKAIRQFASVNGRSWKSELRYLWETGAYHRAALGGADPGYLQQVRNQFGPGWLRAFKISK”, the “soluble fraction (log2)” value is reported as -0.852. For “HMSGRVPTADDIAVGMKVYVPRLGGTGTVVTEPVRDKVVIQVGSLRLHAEVAELLLPDEHGRIQVPR”, the “soluble fraction (log2)” value was 0.00655. For “HMTEDQDWAIFKQKLKAQTEIDLDLYKEPQMKHRIKNLIQNAGFDSYVQYFDYVYLNQDRLAAFLENLTV”, the “soluble fraction (log2)” value was 0.0704. In the case of “HMERFLENAIPVLGETGLDIKSATEDFENALIRQALHLSGGNKNRAATLLGLKRTTFVEMLKRKSL”, the “soluble fraction (log2)” value is reported as -0.806. In the case of “HMGQLIVTIPNFERRPAEQAIQKLEELGLVPEEKQIYHDDIPAGSVIYTDPSKDSQVNAGTKVYVYVSLG”, the “soluble fraction (log2)” value is reported as -0.116. In the case of “HMQEINLIGVTGNDLERSALVKLLDGEIIKLSVGDNLNGGRVVDISAVTLTYLKSGQSITLKLPK”, the “soluble fraction (log2)” value is reported as -1.01. For “HMGTTTGKVNATGVNFRTGPSTSYSSMGKLGIDTAVTILGKSGDWYQVKVNSTGKTGYVFAKYITITSVV”, the “soluble fraction (log2)” value was -0.0946. For “HMGGKWKLRILWHIHHGDTRFSTLKRGIPEISEKILAQQLRELEEHQLIKRRVVTVMPPHVVYEL”, the “soluble fraction (log2)” value was -2.28. In the case of “HMQQLTQRELTLLRLLANGYNNRQIAEQLQLAESTVKNNLSALFQKIGVRDRTQAVLFAISQGLVP”, the “soluble fraction (log2)” value is reported as -0.656. With “HMKRDEYIAQLKKYLKRLPKKEYDSAIEYFTEYFDEAGPERELEVIQELGQPKEAAKEMLLQLLNE” the “soluble fraction (log2)” value was 0.0905. In the case of “HMALQDKYKQLVDTATASGVANLQVREQDGVLYIDGEAPSGSVKDQLWDIYGKIDPNFLSGDVVMNINV”, the “soluble fraction (log2)” value is reported as -0.0683. For “HMSSEYARFFSGNYYEVLGVAKNASYDEIKAAWKKLVKEYHPDLHPQRQEEFTKIIQKINEAYEYFKKMH”, the “soluble fraction (log2)” value was -0.0398. With “HMSTDIPFNIFSQKWNADEIDSIVVENNKIEGKTKDNKKFSTYAPDELLTSLMENHKNPNVIVEFRAP” the “soluble fraction (log2)” value was 0.277. For “HMKSNESAELGERMLNKALLALHTDSSKISDTQWQKLLRDYGAKNKQEILTDIGLGKRLNVMVAHQLMAMG”, the “soluble fraction (log2)” value was -0.0795. For “HMYHKKEKAQAANIEERIMILLSDGKHHHITEIKAIYVDEVITLNILEEMLAEEKVIIEGDMIMLVE”, the “soluble fraction (log2)” value was -3. In the case of “HMGGGVERLTPRQREVLGYMAEGRSNSWIAGAIGFSEKAVVQHTSKIYDALGLAVDADDHRRVLAVLRYLT”, the “soluble fraction (log2)” value is reported as -1.44. In the case of “HMSRVKQERLNRFVEAFEAYFRSVHPGEIDVEYLKSDEFGDIFESILHRVMHTASEEKMHRFKKILLNEM”, the “soluble fraction (log2)” value is reported as -2.13. With “HMSESKYKMIKNWIKSKILDGTLVPNQKIYSESELMEIFDVSRHTVRLAIGELVSEGYLFKRQGTGTFVTQ” the “soluble fraction (log2)” value was -0.577. For “HMSDLGEIEKIVDEVLAENITKVQEYKDGKKGLMGMFMGQIMKKSGGKADPKIANQLLTEKL”, the “soluble fraction (log2)” value was 0.114. For “HMLSGNLTADAHVHRGLQALSDGRNEDALVDFTKATEVQADFAEAWNKRATVNYLLGRYDAAVLDIQKTLE”, the “soluble fraction (log2)” value was 0.19. In the case of “HMEPSQEFSLADMVAYDLTGYPKSAALRAAVGASLGIGYGNAKQFVYRLNHYGISKDDFHRAAQEALDGL”, the “soluble fraction (log2)” value is reported as -0.87. With “HMSFSTHHEYYIYNLAVDMRKGYDGLSGLVVNELGRQPWDGSVYVFFNTMRDKVKLLVWDTDGYVIYSKR” the “soluble fraction (log2)” value was 0.279. In the case of “HMVTEIDYGAFIKMTEEGNIGEVKIEDNQIVFTDKENKAIYKTGIMPDSDLTQRLYDSGAVFA”, the “soluble fraction (log2)” value is reported as 0.0785. For “HMVNPIDFYLLFRTELQRLAEHPITVDRLTEVTGLNKLQVLDWLKRAEQDGLVKKLNRPTRYQLN”, the “soluble fraction (log2)” value was -0.0401. For “HMNPGQIIRKLRQDQGMTLAVLAKYANLDPGNLSRIERDDLNISFNLLEKLSLILNVSPIVFFH”, the “soluble fraction (log2)” value was -0.154. With “HMKKSTLLLFFLKELLEGKKISLKSFALENDINIRTAQRYIEDIEEAFPDNLLKENDFYSFV” the “soluble fraction (log2)” value was -2.25. With “HMKPATSITFIPSERPDLVEQLSKITFDKKDSLYENYINLNWLTFEAISVYMREGDIIGFST” the “soluble fraction (log2)” value was 0.0284. With “HMDHKSALQELLAPRGLQPSYRLVEEAGPAHARVFTSEVSVDGVARGSGTGTTIKMSEQAAAREALASLG” the “soluble fraction (log2)” value was 0.223. In the case of “HMTLTIEDQLRRLRARLGRGRAFLFSDVLVNPHDRTEIAVTLLALLELIKRREAQASQSYLFGPIEVAAA”, the “soluble fraction (log2)” value is reported as -1.94. For “HMSHFSERLKSLRQQSSITQAKLADDLNVTKSLISMYESGQRLPSFEMLETIADYFNVPLSSLV”, the “soluble fraction (log2)” value was -0.089. In the case of “HMEDISLYKILRAHSIDNLKLSQWIIDSLKTKFSTIGELQDAKIDDIRMYRIQDVRIEKIKNAVTEYMA”, the “soluble fraction (log2)” value is reported as -0.926. With “HMNDFVTVPDLQGIFYSEAIKKIDKMGLKEGSIQFVNQDKFLPNTVLNQNPKEGTKVSQDSPINLIIS” the “soluble fraction (log2)” value was 0.0352. With “HMRGQLADLWLPREQARRAAEIVAARPVPLGSVKTWIARGKLAPRKTGTGPALYRVGALVSLLAKS” the “soluble fraction (log2)” value was -1.67. In the case of “HMRSFGRLRRRDSGRWEAAYVGPDARLYRAPATFEAKDDAIAWLSAERRMIELDTWIKPHDRASR”, the “soluble fraction (log2)” value is reported as -1.11. In the case of “HMGTSQSAVKAILAQLISDENKQKPYSDEALSRLLQQQGIDIARRTVAKYREALNIPPAHQRK”, the “soluble fraction (log2)” value is reported as 0.101. In the case of “HMKQLVVVPRVVSLSEGKAREDVGDRGLVVDRVEMDTLRTPYENTVTRQEPAADSRVPVGTRVTLWISPGV”, the “soluble fraction (log2)” value is reported as 0.261. In the case of “HMNKYYQQLLQADPTGFIDPFKDLGTYDSRLNTFKEPVSELLNPFSGRPYSKIWQKRIETMREIFISYIKS”, the “soluble fraction (log2)” value is reported as -2.86. With “HMVGKIVVPHLEGKPAEMARDILARDGFKSVHEEVLPSAEFGAGRVVRTEPHAGTNVAKTDPVTIFVSVGL” the “soluble fraction (log2)” value was -0.00887. For “HMQDVVERIKKYKQLFSITSEELSKRSGIPLGTLNKILSSSTKSIKTETLAAIAKGLDVSVSDLVGREK”, the “soluble fraction (log2)” value was 0.0602. For “HMFRDFSETLLRKLQAAGGFLPFTDKTDAEAIAEHFQVSKKTFKRAVGTLYKQRRILIDDEGITLIG”, the “soluble fraction (log2)” value was -0.148. For “HMEEVRFPLKKEILLWALKEAQVDEDEVFRKFTNLEKWINGEKHPTFKQIESLANYLKIPFGYMFLEKPPI”, the “soluble fraction (log2)” value was 0.0399. In the case of “HMPDDHFIRGYVTAVLEQVLKVPSIQVEVERGVVILRGDLPGEERQELLDAVSRIHGVARVEYIPL”, the “soluble fraction (log2)” value is reported as -0.0295. With “HMVTARMPDLFGLDEATAQRMVSNAGLTLKTEYAYSDQAEGYVFDQTPEANAEVRRGGTVTAMIS” the “soluble fraction (log2)” value was 0.0381. With “HMTVKRNILQELLKTAFKHPEDFRPSKTFYGETGIGQKRFWALYYGHKAVTQKEYYAVADYLG” the “soluble fraction (log2)” value was -0.0349. In the case of “HMKNELNSKLIISIKEALPPQIKVATYLMDLLSLGREAVYRRIRGDVSFDLEELSIISKALNISIDDVL”, the “soluble fraction (log2)” value is reported as -4.15. With “HMVLSPAQVRRALMVSGLFTEARVARQLGVPMDLKQILRIILRNTPPQSAMARELESAIDEIESRNAMRD” the “soluble fraction (log2)” value was -1.62. For “HMFEQFEVENLQELQQEWGDKFNHNLEMARRAFMNFATPEAVKVLEETGMGNHPELLKVFARIGEVLAED”, the “soluble fraction (log2)” value was -0.536. In the case of “HMIMNEYEELRDRYLIGQIWKIGDLIEAKGIEGKIIQRGTNYVTFNDNNGKVHKAWLHEIKYEQ”, the “soluble fraction (log2)” value is reported as -0.343. For “HMVDGAHKQQAAVQALTPALKVLAAAPEGKKGQAIQALRAVLKQHGRWLDDATAQQVHEQLLAAGDAQGWQ”, the “soluble fraction (log2)” value was 0.297. With “HMRPTAWDQISDWLDRHGSIANADVVRIAGLDTLKASKLLTTWREQGLLEPLPGRGKRNMAYVRAI” the “soluble fraction (log2)” value was -0.554. With “HMDNITIYSSNGKIYVNAIGGEKIELFNITGQKVAEKVAVSGINVLDAVYDITLVKVGSKVVKVV” the “soluble fraction (log2)” value was -0.123. For “HMTSPELIELGERIRKRRQEMNLSQEALAEKAGISINTVSRVEGGQTAMSIEIFRKMIEILETDANGL”, the “soluble fraction (log2)” value was -0.212.
